Reference: patent US20200147199A1

Assays:
Assay in all cases: SPR
[1] = molecular target: Human FcRn
[2] = molecular target: Human FcγRIIIaV158
[3] = molecular target: NHP FcγRIII
[4] = molecular target: NHP FcγRIIb
[5] = molecular target: NHP FcγRIIa
[6] = molecular target: Human FcγRIIaH131
[7] = molecular target: Human FcγRIIb

Kd [2] [nM] | Kd [3] [nM] | Kd [4] [nM] | Kd [5] [nM] | Kd [6] [nM] | Kd [7] [nM] | Substance | Kd [1] [nM]
– | – | – | – | – | – | GRLR | 22.4
233 | 424 | 2690 | 7970 | 2090 | 6380 | LS | 4.76
